Experimental data reported in the supplement of paper PMC9170038.

Assays:
MS2 coat protein [1] = experiment: apparent KD of MS2 coat protein, switch ON state; designed switch direction (-1 OFF switch, 1 ON switch): -1; higher = weaker reporter binding; settings: FMN input: 0 or 200 uM; Eterna round: R93 (includes R88 designs)
Method in brief: (§1)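 Apparent KD was obtained for each design as the median of normalised binding-curve fits over its clusters. RNA switches transcribed on-chip from Illumina sequencing clusters were titrated with SNAP-549-labelled MS2 coat protein (twofold steps, 0.7 or 1.5 nM to 3 µM) in 100 mM Tris-HCl pH 7.5, 80 mM KCl, 4 mM MgCl2, without or with constant ligand.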

MS2 coat protein [2] = experiment: apparent KD of MS2 coat protein, switch OFF state (with FMN for OFF switches, without FMN for ON switches); designed switch direction (-1 OFF switch, 1 ON switch): -1; higher = weaker reporter binding; settings: FMN input: 0 or 200 uM; Eterna round: R93 (includes R88 designs)
Method in brief: as §1

Sequence	apparent KD of MS2 coat protein (MS2 coat protein [1]) [nM]	apparent KD of MS2 coat protein (MS2 coat protein [2]) [nM]
AAUAACACAGGAUAUACUAAAGAAAUGAAAAGAAAUAAAGAACAUGAGGAUCACCCAUGUAGAAGGGUGAAUAA [Shenshek]	204	186
AAUAAGUCAGGAUAUACUAAAGAAAUGAAAAGGGAUAAAGAACAUGAGGAUCACCCAUGUAGAAGGGACAAUAA [Sakir-Har]	93.2	51.6
AAUACACAUGAGGAUCACCCAUGUAAGGAUAUCGAAAAAAAAAUAAACAAAAAACAAACGAGAAGGUACAAAAA [Exclusion 1 design 3]	33.2	33.6
AAUUCACAUGAGGAUCACCCAUGUAAGGAUAUCGAAAAAAAACUAAACAAAAAACAAACGAGAAGGUACAAAAA [Exclusion 1 design 5]	25.5	31.6
AAUUCACAUGAGGAUCACCCAUGUAAGGAUAUCGAAAUAAAACUAAUCAAUAAACAAACGAGAAGGUACAAAAA [Exclusion 1 design 8]	20.4	24
ACAAGCCUAGGAUAUACAUGAGGAUCACCCAUGUGAAAGAACCGGUGACUCCUGGAAAGUAGAAGGAGGAAUCG [Biatla]	44.7	40.1
ACAAGGUCAGGAUAUACAUGAGGAUCACCCAUGUGAGAAUUCGAUUAAAACACACAAAGUAGAAGGGACCAGGA [Ruby 83]	22	33.6
ACCAAUGGAGGAUAUACAUGAGGAUCACCCAUGUUUAUCCUACAUAGGUGAAAAACAUGUAGAAGGCCAUAGGA [EX3 237: Super Stable 37]	11.1	12
ACCAAUGGAGGAUAUACAUGAGGAUCACCCAUGUUUAUCCUACAUAGGUGAAAAAUAUGUAGAAGGCCAUAGGA [EX3 238: Super Stable 38]	13.2	10.8
ACCUGACAUGAGGAUCACCCAUGUCAGGAUAUGACUUCGAAAAAAAAAAAAAACGAUGUCAGAAGGGACAUGGG [Design 70: Sub-opt P]	15.4	15.9
ACUUAUGAAGGAUAUACUAACAACAUACACUCAACACACACACAUGAGGAUCACCCAUGUAGAAGGUCAAACAU [JR_Exc002_Sub1205]	19.6	18.2
AGAAAACAUGAGGAUCACCCAUGUCAGGAUAUCAAAAAGAAAAGAAAAGAAAGAAGAAUGAGAAGGGACAAGAA [Khasekhem(wy)]	27.5	32.1
AGAAAACAUGAGGAUCACCCAUGUGAGGAUAUGCGAAUAAAGAAACAAAUAAAAGAAAGCAGAAGGCACAACAA [Ex 1 Tesla 4]	31.9	36
AGAAAGCUAGGAUAUACCUGGAGGGUUCGAAAUGAAAUAAAACAUGAGGAUCACCCAUGUAGAAGGAGCCCGAG [Veislela]	42.6	28
AGAAAGUCAGGAUAUACAGAAAAAAAAACGAAAAAAAAUCUGUAGAAGGGACAUGAGGAUCACCCAUGUAAAGA [Mat - Exclusion 4 - Mayanna - D124]	66.1	36.8
AGAAAGUCAGGAUAUAUGCGAAAAAUAAAAAAAAUAAAAACAUAGAAGGGACAUGAGGAUCACCCAUGUUAAGA [Mat - Exclusion 4 - Mayanna - D136]	50	32
AGAAAGUCAGGAUAUGCAGAUAAAAAAACGAAAAAAAAUCUGCAGAAGGGACAUGAGGAUCACCCAUGUAAAGA [Mat - Exclusion 4 - Mayanna - D111]	52.3	40.2
AGAAAGUCAGGAUAUGCGAAGGCGUCUGAUAGACGAGGCUAGCAGAAGGGACAUGAGGAUCACCCAUGUGAAGA [Mat - Exclusion 4 - Eli mod - D85]	55	86.4
AGAAAGUGAGGAUAUCGAAGACUGUCGAAAAGACAGUCGAACGAGAAGGCACAUGAGGAUCACCCAUGUGAGGG [Mat - Exaclusion 4 - Eli mod - D67]	76.3	58.2
